Data: article PMC13208732
Blank lines part the entries; values can stand above or below the substance they belong to.

How the values were obtained:
[1] = biological target: human vascular endothelial growth factor A, isoform VEGFA165 (human) (UniProt P15692); experiment: ELISA; competition with VEGFR1, no heparin
[2] = biological target: human vascular endothelial growth factor A, isoform VEGFA165 (human) (UniProt P15692); experiment: ELISA; competition with NRP1, no heparin
[3] = biological target: human vascular endothelial growth factor A, isoform VEGFA165 (Homo sapiens); experiment: ELISA; competition with biotinylated NRP1, no heparin; conditions: Fc fusion
[4] = biological target: human vascular endothelial growth factor A, isoform VEGFA165 (Homo sapiens); experiment: ELISA; competition with biotinylated VEGFR1, no heparin; conditions: Fc fusion

Sequence of human vascular endothelial growth factor A, isoform VEGFA165 (Homo sapiens) (P15692 other isoform, or with tags, fused parts or gaps): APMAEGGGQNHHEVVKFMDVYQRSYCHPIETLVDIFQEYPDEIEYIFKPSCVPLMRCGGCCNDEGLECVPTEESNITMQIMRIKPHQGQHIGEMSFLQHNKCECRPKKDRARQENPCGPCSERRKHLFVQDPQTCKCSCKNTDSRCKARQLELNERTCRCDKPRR
Sequence of human vascular endothelial growth factor A, isoform VEGFA165 (human) (P15692 other isoform, or with tags, fused parts or gaps): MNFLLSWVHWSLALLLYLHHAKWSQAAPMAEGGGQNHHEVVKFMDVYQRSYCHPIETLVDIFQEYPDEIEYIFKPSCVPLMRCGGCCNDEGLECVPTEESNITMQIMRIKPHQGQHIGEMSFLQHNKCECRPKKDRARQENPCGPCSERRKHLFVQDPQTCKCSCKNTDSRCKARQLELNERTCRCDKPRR
Sequence of VEGFR1 domains 1 to 6 fused to a C-terminal Fc, biotinylated (P17948 27-654): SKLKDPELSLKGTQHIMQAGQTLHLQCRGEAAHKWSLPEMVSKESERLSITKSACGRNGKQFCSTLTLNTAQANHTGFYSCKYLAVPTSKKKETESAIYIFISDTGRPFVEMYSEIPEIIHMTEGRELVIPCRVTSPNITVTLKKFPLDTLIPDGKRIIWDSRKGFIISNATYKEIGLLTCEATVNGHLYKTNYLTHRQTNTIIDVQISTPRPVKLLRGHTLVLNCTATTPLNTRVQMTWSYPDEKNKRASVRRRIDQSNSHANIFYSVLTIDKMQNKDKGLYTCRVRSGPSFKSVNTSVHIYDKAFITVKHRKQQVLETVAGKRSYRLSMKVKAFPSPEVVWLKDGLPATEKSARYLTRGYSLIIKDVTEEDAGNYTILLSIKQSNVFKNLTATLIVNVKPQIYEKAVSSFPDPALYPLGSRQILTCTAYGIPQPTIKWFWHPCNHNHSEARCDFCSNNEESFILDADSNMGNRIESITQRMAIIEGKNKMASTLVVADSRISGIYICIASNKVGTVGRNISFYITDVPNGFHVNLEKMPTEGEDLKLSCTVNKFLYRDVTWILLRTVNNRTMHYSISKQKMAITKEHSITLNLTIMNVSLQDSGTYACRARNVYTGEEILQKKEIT

- IC50 [1]: 58.2 nM
- IC50 [2]: 1.9 nM
Substance: G6-31

Substance: NRP1 receptor domains α1α2β1β2 fused to a C-terminal Fc, biotinylated (from UniProt O14786 22-583)
- IC50 [3]: 52.8 nM

- IC50 [4]: 16.3 nM
Substance: VEGFR1 domains 1 to 6 fused to a C-terminal Fc, biotinylated (from UniProt P17948 27-654)
